From patent publication US20260028608A1

Assays:
[1] = molecular target: Human IgG (fixed concentration, MSD potency assay of Example 4); test: cell-based or functional assay
[2] = molecular target: IgG in human serum pool from 100 individuals; test: cell-based or functional assay

B1: N240, a variant IdeZ polypeptide of the invention (enzyme)
chain: MDDYQRNATEAYAKEVPHQITSVWTKGVTPPEQFTQGEDVIHAPYLAHQGWYDITKAFNGKDDLLCGAATAGNMLHWWFDQNKTEIEAYLSKHPEKQKIIFRNQELFDLKAAIDTKDSQTNSQLFNYFRDKAFPNLSARQLGVMPDLVLDMFINGYYLNVFKTQSTDVNRPYQDKDKRGGIFDAVFTRGNQTTLLTARHDLKNKGLNDISTIIKQELTEGRALALSHTYANVSISHVINLWGADFNAEGNLEAIYVTDSDANASIGMKKYFVGINAHGHVAISAKKIEGENIGAQVLGLFTLSSGKDIWQKLS
With B1 the mean relative potency (EC50Ref/EC50Test x 100%), MSD potency assay of IgG cleavage [1] was 300%, the Relative Potency (%) In Serum, Plate 1 (MSD, from EC50; reference IdeS) [2] was 151% and the Relative Potency (%) In Serum, Plate 1 (MSD, from EC50; reference IdeS; separate dilutions) [2] was 137%. The Relative Potency (%) In Serum, Plate 2 (MSD, from EC50; reference IdeS) [2] was 132%, the Relative Potency (%) In Serum, Plate 2 (MSD, from EC50; reference IdeS; separate dilutions) [2] was 146% and the Relative Potency (%) In serum, Mean value (MSD, from EC50; reference IdeS) [2] was 142%. The Relative Potency (%) In serum, Mean value (MSD, from EC50; reference IdeS; separate dilutions) [2] was 142%.

B2: pCART239, a variant IdeZ polypeptide of the invention (enzyme)
chain: MDDYQRNATEAYAKEVPHQITSVWTKGVTPPEQFTQGEDVIHAPYLAHQGWYDITKAFNGKDDLLCGAATAGNMLHWWFDQNKTEIEAYLSKHPEKQKIIFRNQELFDLKAAIDTKDSQTNSQLFNYFRDKAFPNLSARQLGVMPDLVLDMFINGYYLNVFKTQSTDVNRPYQDKDKRGGIFDAVFTRGNQTTLLTARHDLKNKGLNDISTIIKQELTEGRALALSHTYANVSISHVINLWGADFNAEGNLEAIYVTDSDANASIGMKKYFVGINAHGHVAISAKKIEGENIGAQVLGLFTLSSGKDIWQKLSGGGHHHHHH
B2 showed an enzyme concentration at which all IgG were converted to scIgG, serum pool with 0.1 mg/ml pCART243 (SDS-PAGE) [2] of 0.5 µg/ml.
